Measured values as given in the RNAGym collection of RNA variant scans (doi:10.7554/elife.80360).

B1: CPEB3 Ribozyme (parent)
chain: GGGGGCCACAGCAGAAGCGUUCACGUCGCGGCCCCUGUCAGAUUCUGGUGAAUCUGCGAAUUCUGCUGU

Variants of: B1
Assay: self-cleavage, relative activity (ratio to wild type); higher = more cleavage; co-transcriptional

Variant | self-cleavage
GGGAGCCACAGCAGAAGCCUUCACGUCGCGGCCCCUGUCAGAUUCUGGUGAAUCUGCGAAUUCUGCUGU [G4A G19C] | 0.11
GGGAGCCACAGCAGAAGCUUUCACGUCGCGGCCCCUGUCAGAUUCUGGUGAAUCUGCGAAUUCUGCUGU [G4A G19U] | 0.178
GGGAGCCACAGCAGAAGCGUUCACGUCGCGGCCCCUAUCAGAUUCUGGUGAAUCUGCGAAUUCUGCUGU [G4A G37A] | 0.179
GGGAGCCACAGCAGAAGCGUUCACGUCGCGGCCCCUCUCAGAUUCUGGUGAAUCUGCGAAUUCUGCUGU [G4A G37C] | 0.149
GGGAGCCACAGCAGAAGCGUUCACGUCGCGGCCCCUUUCAGAUUCUGGUGAAUCUGCGAAUUCUGCUGU [G4A G37U] | 0.154
GGGAGCCACAGCAGAAGCGGUCACGUCGCGGCCCCUGUCAGAUUCUGGUGAAUCUGCGAAUUCUGCUGU [G4A U20G] | 0.0767
GGGAGCCACAGCAGAAGCGAUCACGUCGCGGCCCCUGUCAGAUUCUGGUGAAUCUGCGAAUUCUGCUGU [G4A U20A] | 0.23
GGGAGCCACAGCAGAAGCGUUCACGUCGCCGCCCCUGUCAGAUUCUGGUGAAUCUGCGAAUUCUGCUGU [G4A G30C] | 0.188
GGGAGCCACAGCAGAAGCGUUCACGUCGCUGCCCCUGUCAGAUUCUGGUGAAUCUGCGAAUUCUGCUGU [G4A G30U] | 0.0939
GGGAGCCACAGCAGAAGCGUUCACGUCGCAGCCCCUGUCAGAUUCUGGUGAAUCUGCGAAUUCUGCUGU [G4A G30A] | 0.294
GGGAGCCACAGCAGAAGCGUUCACGUUGCGGCCCCUGUCAGAUUCUGGUGAAUCUGCGAAUUCUGCUGU [G4A C27U] | 0.19
GGGAGCCACAGCAGAAGCGUUCACGUAGCGGCCCCUGUCAGAUUCUGGUGAAUCUGCGAAUUCUGCUGU [G4A C27A] | 0.212
GGGAGCCACAGCAGAAGCGUUCACGUCGCGGCCCCUGUCAGAUUCUGGUGAAUCUGAGAAUUCUGCUGU [G4A C57A] | 0.245
GGGAGCCACAGCAGAAGCGUUCACGUCGCGGCCCCUGUCAGAUUCUGGUGAAUCUGGGAAUUCUGCUGU [G4A C57G] | 0.217
GGGAGCCACAGCAGAAGCGUUCACGUCGCGGCCCCUGUCAGAUUCUGGUGAAUCUGUGAAUUCUGCUGU [G4A C57U] | 0.223
GGGAGCCACAGCAGAAGCGUUCACGUCGCGGCCCCUGUCAGAUUCUGGUGAAUGUGCGAAUUCUGCUGU [G4A C54G] | 0.388
GGGAGCCACAUCAGAAGCGUUCACGUCGCGGCCCCUGUCAGAUUCUGGUGAAUCUGCGAAUUCUGCUGU [G4A G11U] | 0.629
GGGAGCCACAACAGAAGCGUUCACGUCGCGGCCCCUGUCAGAUUCUGGUGAAUCUGCGAAUUCUGCUGU [G4A G11A] | 0.672
GGGAGCCACACCAGAAGCGUUCACGUCGCGGCCCCUGUCAGAUUCUGGUGAAUCUGCGAAUUCUGCUGU [G4A G11C] | 0.631
GGGAGCCACAGCAGAAGCGUUCACGUCGCGGCCCCUGUCAGACUCUGGUGAAUCUGCGAAUUCUGCUGU [G4A U43C] | 0.651
GGGAGCCACAGCAGAAGCGUUCACGUCGCGGCCCCUGUCAGAGUCUGGUGAAUCUGCGAAUUCUGCUGU [G4A U43G] | 0.511
GGGAGCCACAGCAGAAGCGUUCACGUCGCGGCCCCUGUCAGAAUCUGGUGAAUCUGCGAAUUCUGCUGU [G4A U43A] | 0.683
GGGAGCCACAGCAGAAGCGUUCACGUCGCGGCCCCUGUCAGAUUCUGGUGAAUCUGCGAAUUUUGCUGU [G4A C63U] | 0.84
GGGAGCCACAGCAGAAGCGUUCACGUCGCGGCCCCUGUCAGAUUCUGAUGAAUCUGCGAAUUCUGCUGU [G4A G48A] | 0.92
GGGAGCCACAGCAGAAGCGUUCACGUCGCGGCCCCUGACAGAUUCUGGUGAAUCUGCGAAUUCUGCUGU [G4A U38A] | 0.761
GGGAGCCACAGCAGAAGCGUUCACGUCGCGGCCCCUGGCAGAUUCUGGUGAAUCUGCGAAUUCUGCUGU [G4A U38G] | 0.107

Variant | self-cleavage
GGGAGCCACAGCAGAAGCGUUCACGUCGCGGCCCCUGUCAGAUUCUAGUGAAUCUGCGAAUUCUGCUGU [G4A G47A] | 0.895
GGGAGCCACAGCAGAAGCGUUCACGUCGCGGCCCCUGUCAGAUUCUCGUGAAUCUGCGAAUUCUGCUGU [G4A G47C] | 0.901
GGGAGCCACAGCAGAAGCGUUCACGUCGCGGCCCCUGUCAGAUUCUGGUGAAUCUGCAAAUUCUGCUGU [G4A G58A] | 0.683
GGGAGCCACAGCAGAAGCGUUCACGUCGCGGCCCCUGUCAGAUUCUGGUGAAUCUGCUAAUUCUGCUGU [G4A G58U] | 0.9
GGGAGCCACAGCAGAAGCGUUCACGUCGCGGCCCCUGUCAAAUUCUGGUGAAUCUGCGAAUUCUGCUGU [G4A G41A] | 0.506
GGGACCCACAGCAGAAGCGUUCACGUCGCGGCCCCUGUCAGAUUCUGGUGAAUCUGCGAAUUCUGCUGU [G4A G5C] | 0.113
GGGAACCACAGCAGAAGCGUUCACGUCGCGGCCCCUGUCAGAUUCUGGUGAAUCUGCGAAUUCUGCUGU [G4A G5A] | 0.103
GGGAGCCACAGCAGAACCGUUCACGUCGCGGCCCCUGUCAGAUUCUGGUGAAUCUGCGAAUUCUGCUGU [G4A G17C] | 0.0965
GGGAGCCACAGCAGAAACGUUCACGUCGCGGCCCCUGUCAGAUUCUGGUGAAUCUGCGAAUUCUGCUGU [G4A G17A] | 0.175
GGGAGCCACAGCAGAAGCGUUCACGCCGCGGCCCCUGUCAGAUUCUGGUGAAUCUGCGAAUUCUGCUGU [G4A U26C] | 0.827
GGGAGCCACAGCAGAAGCGUUCACUUCGCGGCCCCUGUCAGAUUCUGGUGAAUCUGCGAAUUCUGCUGU [G4A G25U] | 0.0834
GGGAGCCACAGCAGAAGCGUUCACAUCGCGGCCCCUGUCAGAUUCUGGUGAAUCUGCGAAUUCUGCUGU [G4A G25A] | 0.117
GGGAGCCACAGCAGAAGCGUUCACGUCGCGGACCCUGUCAGAUUCUGGUGAAUCUGCGAAUUCUGCUGU [G4A C32A] | 0.216
GGGAGCCACAGCAGAAGCGUUCACGUCGCGGCCCCUGUCAGAUUCUGGUAAAUCUGCGAAUUCUGCUGU [G4A G50A] | 0.839
GGGAGCCACAGCAGAAGCGUUCACGUCGCGGCCCCUGUCAGAUUCUGGUCAAUCUGCGAAUUCUGCUGU [G4A G50C] | 0.808
GGGAGCCACAGCAGAAGCGUUCACGUCGCGGCCCCUGUCAGAUUCUGGUUAAUCUGCGAAUUCUGCUGU [G4A G50U] | 0.849
GGGAGCCACAGCAGAAGCGUUCACGUCGCGGCGCCUGUCAGAUUCUGGUGAAUCUGCGAAUUCUGCUGU [G4A C33G] | 0.68
GGGAGCCACAGCACAAGCGUUCACGUCGCGGCCCCUGUCAGAUUCUGGUGAAUCUGCGAAUUCUGCUGU [G4A G14C] | 0.305
GGGAGCCACAGCAUAAGCGUUCACGUCGCGGCCCCUGUCAGAUUCUGGUGAAUCUGCGAAUUCUGCUGU [G4A G14U] | 0.519
GGGAGCCACAGCAGAAGCGUUCACGUCUCGGCCCCUGUCAGAUUCUGGUGAAUCUGCGAAUUCUGCUGU [G4A G28U] | 0.127
GGGAGCCACAGCAGAAGCGUUCACGUCCCGGCCCCUGUCAGAUUCUGGUGAAUCUGCGAAUUCUGCUGU [G4A G28C] | 0.162
GGGAGCCACAGCAGAAGCGUUGACGUCGCGGCCCCUGUCAGAUUCUGGUGAAUCUGCGAAUUCUGCUGU [G4A C22G] | 0.165
GGGAGCCACAGCAGAAGCGUUUACGUCGCGGCCCCUGUCAGAUUCUGGUGAAUCUGCGAAUUCUGCUGU [G4A C22U] | 0.157
GGGAGCCACAGCAGAAGCGUUCACGUCGUGGCCCCUGUCAGAUUCUGGUGAAUCUGCGAAUUCUGCUGU [G4A C29U] | 0.216
GGGAGCCACAGCAGAAGCGUUCACGUCGGGGCCCCUGUCAGAUUCUGGUGAAUCUGCGAAUUCUGCUGU [G4A C29G] | 0.103
GGGAGCCACAGCAGAAGCGUUCACGUCGCGCCCCCUGUCAGAUUCUGGUGAAUCUGCGAAUUCUGCUGU [G4A G31C] | 0.148

Variant | self-cleavage
GGGAGCCACAGCAGAAGCGUUCACGUCGCGUCCCCUGUCAGAUUCUGGUGAAUCUGCGAAUUCUGCUGU [G4A G31U] | 0.159
GGGAGCCACAGCAGAAGCGUUCAGGUCGCGGCCCCUGUCAGAUUCUGGUGAAUCUGCGAAUUCUGCUGU [G4A C24G] | 0.177
GGGAGCCACAGCAGAAGCGUUCAAGUCGCGGCCCCUGUCAGAUUCUGGUGAAUCUGCGAAUUCUGCUGU [G4A C24A] | 0.295
GGGAGCCACAGCAGAAGCGUUCAUGUCGCGGCCCCUGUCAGAUUCUGGUGAAUCUGCGAAUUCUGCUGU [G4A C24U] | 0.352
GGGAGCCACAGCAGAAGCGUUCACGUCGCGGCCCCUGUCAGAUUCUGGUGAAUCUCCGAAUUCUGCUGU [G4A G56C] | 0.456
GGGAGCCACAGCAGAAGCGUUCACGUCGCGGCCCCUGUCAGAUUCUGGUGAAUCUUCGAAUUCUGCUGU [G4A G56U] | 0.744
GGGAGCCACAGCAGAAGCGUUCACGUCGCGGCCCCUGUCAGAUUAUGGUGAAUCUGCGAAUUCUGCUGU [G4A C45A] | 0.808
GGGAGCCACAGCAGAAGCGUUCACGUCGCGGCCCCUGUCAGAUUUUGGUGAAUCUGCGAAUUCUGCUGU [G4A C45U] | 0.909
GGGAGCCACAGCAGAAGCGUUCACGUCGCGGCCUCUGUCAGAUUCUGGUGAAUCUGCGAAUUCUGCUGU [G4A C34U] | 0.627
GGGAGCCACAGCAGAAGCGUUCACGUCGCGGCCACUGUCAGAUUCUGGUGAAUCUGCGAAUUCUGCUGU [G4A C34A] | 0.31
GGGAGCCACAGCAGAAGCGUUCACGUCGCGGCCCCGGUCAGAUUCUGGUGAAUCUGCGAAUUCUGCUGU [G4A U36G] | 0.424
GGGAGCCACAGCAGAAGCGUUCACGUCGCGGCCCCCGUCAGAUUCUGGUGAAUCUGCGAAUUCUGCUGU [G4A U36C] | 0.792
GGGAGCCACAGCAGAAGCGUUCACGUCGCGGCCCGUGUCAGAUUCUGGUGAAUCUGCGAAUUCUGCUGU [G4A C35G] | 0.162
GGGAGCCACAGCAGAAGCGUUCACGUCGCGGCCCAUGUCAGAUUCUGGUGAAUCUGCGAAUUCUGCUGU [G4A C35A] | 0.175
GGGAGCCACAGCAGAAGCGUUCACGUCGCGGCCCCUGUCAGAUUCUGGUGAAUCUGCGAAUUCUGCUUU [G4A G68U] | 0.978
GGGAGCCACAGCAGAAGCGUUCACGUCGCGGCCCCUGUAAGAUUCUGGUGAAUCUGCGAAUUCUGCUGU [G4A C39A] | 0.521
GGGAGCCACAGCAGAAGCGUUCACGUCGCGGCCCCUGUUAGAUUCUGGUGAAUCUGCGAAUUCUGCUGU [G4A C39U] | 0.544
GGGAGCCACAGCAGAAGCGUUCACGUCGCGGCCCCUGUCAGAUUCUGGUGAAUCUGCGAAUUCUGUUGU [G4A C66U] | 0.852
GGGAGCCACAGCAGAAGCGUUCACGUCGCGGCCCCUGUCAGAUUCUGGUGAAUCUGCGAAUUCUGAUGU [G4A C66A] | 0.743
GGGAGCCACAGCAGAAGCGUGCACGUCGCGGCCCCUGUCAGAUUCUGGUGAAUCUGCGAAUUCUGCUGU [G4A U21G] | 0.253
GGGAGCCACAGCAGAAGCGUCCACGUCGCGGCCCCUGUCAGAUUCUGGUGAAUCUGCGAAUUCUGCUGU [G4A U21C] | 0.465
GGGAGCCACAGCAGAAGCGUUCACGUCGCGGCCCCUGUCAGAUUCUGGUGAAUCUGCGAAUUCUUCUGU [G4A G65U] | 0.406
GGGAGCCACAGCAGAAGCGUUCACGUCGCGGCCCCUGUCAGAUUCUGGUGAAUCUGCGAAUUCUACUGU [G4A G65A] | 0.735
GGGAGCCACAGCAGAAGCGUUCACGUCGCGGCCCCUGUCAGAUUCUGGUGAAUCUGCGAAUUCUCCUGU [G4A G65C] | 0.418
GGGAGCCACAGCAGAAGGGUUCACGUCGCGGCCCCUGUCAGAUUCUGGUGAAUCUGCGAAUUCUGCUGU [G4A C18G] | 0.158
GGGAGCCACAGCAGAAGUGUUCACGUCGCGGCCCCUGUCAGAUUCUGGUGAAUCUGCGAAUUCUGCUGU [G4A C18U] | 0.481
